Key:
Assay in all cases: ELISA screen
[1] = target: T1, monomeric SARS-CoV-2 receptor binding domain (RBD-H6) (SARS-CoV-2, UniProt P0DTC2 319-541)
T1 construct: Made in HEK293-6E cells; also called RBD Spike; monomeric RBD

[2] = target: T2, full-length trimeric SARS-CoV-2 Spike protein (Spike-H6) (SARS-CoV-2, N-glycosylated (22 N-glycosylation sites))
T2 construct: also called trimeric Spike; full-length Spike-H6

[3] = target: T3, human recombinant soluble ACE2 (human, UniProt Q9BYF1 18-740)
T3 construct: also called hrsACE2
T3 sequence (Q9BYF1 18-740 limits assumed): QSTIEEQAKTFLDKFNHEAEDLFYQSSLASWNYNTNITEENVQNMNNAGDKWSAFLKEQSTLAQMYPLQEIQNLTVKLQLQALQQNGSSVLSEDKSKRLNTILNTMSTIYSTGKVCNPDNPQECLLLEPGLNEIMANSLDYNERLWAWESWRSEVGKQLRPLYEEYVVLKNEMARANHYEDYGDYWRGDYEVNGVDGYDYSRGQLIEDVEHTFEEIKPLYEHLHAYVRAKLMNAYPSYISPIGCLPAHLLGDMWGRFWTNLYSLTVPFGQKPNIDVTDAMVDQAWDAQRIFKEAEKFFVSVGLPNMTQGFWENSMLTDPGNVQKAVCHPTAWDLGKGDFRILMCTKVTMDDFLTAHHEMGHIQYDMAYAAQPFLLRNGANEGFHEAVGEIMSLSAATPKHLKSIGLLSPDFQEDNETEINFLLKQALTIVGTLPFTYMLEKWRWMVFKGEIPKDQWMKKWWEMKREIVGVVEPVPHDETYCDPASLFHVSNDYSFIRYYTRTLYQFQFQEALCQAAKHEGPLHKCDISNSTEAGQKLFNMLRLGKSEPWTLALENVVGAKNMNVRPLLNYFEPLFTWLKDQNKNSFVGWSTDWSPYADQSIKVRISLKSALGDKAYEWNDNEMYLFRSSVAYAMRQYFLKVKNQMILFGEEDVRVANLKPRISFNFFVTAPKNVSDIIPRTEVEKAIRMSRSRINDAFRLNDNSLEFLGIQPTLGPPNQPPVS

Binder	Mean normalized OD [1] [OD]	Mean normalized OD [2] [OD]	Mean normalized OD [3] [OD]
Sftpa1 CRD-mouse IgG2a-Fc fusion protein (Fc fusion) not shown	0.002	0.005	-0.092
Pla2r1_8 CRD-mouse IgG2a-Fc fusion protein (Fc fusion) FKGNCYSFSTVLDSRSFEDAHEFCKSEGSNLLAIRDAAENSFLLEELLAFGSSVQMVWLNAQFDNNNKTLRWFDGTPTEQSNWGLRKPDMDHLKPHPCVVLRIPEGIWHFTPCEDKKGFICKGGGSGGGSGGGS	0.019	-0.002	-0.005
Reg2 CRD-mouse IgG2a-Fc fusion protein (Fc fusion) INCPEGANAYGSYCYYLIEDRLTWGEADLFCQNMNAGHLVSILSQAESNFVASLVKESGTTASNVWTGLHDPKSNRRWHWSSGSLFLFKSWATGAPSTANRGYCVSLTSNTAYKKWKDENCEAQYSFVCKFGGGSGGGSGGGS	0.026	0.056	-0.042
Mrc1_8 CRD-mouse IgG2a-Fc fusion protein (Fc fusion) FYGHCYYFESSFTRSWGQASLECLRMGASLVSIETAAESSFLSYRVEPLKSKTNFWIGMFRNVEGKWLWLNDNPVSFVNWKTGDPSGERNDCVVLASSSGLWNNIHCSSYKGFICKGGGSGGGSGGGS	0.019	-0.057	-0.021
Pla2r1_2 CRD-mouse IgG2a-Fc fusion protein (Fc fusion) FNRKCYKLKKDRKSWLGALHSCQSNDSVLMDVASLAEVEFLVSLLRDENASETWIGLSSNKIPVSFEWSSGSSVIFTNWYPLEPRILPNRRQLCVSAEESDGRWKVKDCKERLFYICKGGGSGGGSGGGS	0.011	0.001	-0.019
Mrc1_7 CRD-mouse IgG2a-Fc fusion protein (Fc fusion) YGKSSYSLMKLKLPWHEAETYCKDHTSLLASILDPYSNAFAWMKMHPFNVPIWIALNSNLTNNEYTWTDRWRVRYTNWGADEPKLKSACVYMDVDGYWRTSYCNESFYFLCKGGGSGGGSGGGS	0.02	-0.002	-0.008
Pkd1l2 CRD-mouse IgG2a-Fc fusion protein (Fc fusion) not shown	0.001	0.001	-0.002
Cd209e CRD-mouse IgG2a-Fc fusion protein (Fc fusion) FFNGNCYFFSKSQRDWHDSMTACKEMGAQLVIIKSHEEQSFLQQTSKKNSYTWMGLSDLNKEGEWYWLDGSPLSDSFEKYWKKGQPNNVGGQDCVEFRDNGWNDAKCEQRKFWICKGGGSGGGSGGGS	0.048	0.045	-0.016
Siglec12 CRD-mouse IgG2a-Fc fusion protein (Fc fusion) PQEVFTLNVERKVVVQEGLCVLVPCNFSYLKKRLTDWTDSDPVHGFWYREGTDRRKDSIVATNNPIRKAVKETRNRFFLLGDPWRNDCSLNIREIRKKDAGLYFFRLERGKTKYNYMWDKMGGGSGGGSGGGS	-0.021	0.046	-0.105
Reg1 CRD-mouse IgG2a-Fc fusion protein (Fc fusion) ISCPEGSNAYSSYCYYFTEDRLTWADADLFCQNMNSGYLVSVLSQAEGNFVASLIKESGTTDANVWTGLHDPKRNRRWHWSSGSLFLYKSWATGSPNSSNRGYCVSLTSNTGYKKWKDDNCDAQYSFVCKFGGGSGGGSGGGS	0.009	1.55	-0.073
Mrc1_3 CRD-mouse IgG2a-Fc fusion protein (Fc fusion) HGFYCYLIGSTLSTFTDANHTCTNEKAYLTTVEDRYEQAFLTSLVGLRPEKYFWTGLSDVQNKGTFRWTVDEQVQFTHWNADMPGRKAGCVAMKTGVAGGLWDVLSCEEKAKFVCKGGGSGGGSGGGS	0.038	0.037	-0.064
Mrc1_6 CRD-mouse IgG2a-Fc fusion protein (Fc fusion) YKNKCFKIFGFANEEKKSWQDARQACKGLKGNLVSIENAQEQAFVTYHMRDSTFNAWTGLNDINAEHMFLWTAGQGVHYTNWGKGYPGGRRSSLSYEDADCVVVIGGNSREAGTWMDDTCDSKQGYICQGGGSGGGSGGGS	0.004	0.004	-0.001
Reg3a CRD-mouse IgG2a-Fc fusion protein (Fc fusion) YRSHCYALVMTPKSWFQADLVCQKRPSGHLVSILSGGEASFVSSLVNGRVDNYQDIWIGLHDPTMGQQPNGGGWEWSNSDVLNYLNWDGDPSSTVNRGHCGSLTASSGFLKWGDYYCDGTLPFVCKGGGSGGGSGGGS	0.039	0.006	-0.132
Pla2r1_1 CRD-mouse IgG2a-Fc fusion protein (Fc fusion) SSRICYQFNLLSSLSWNQAHSSCLMQGGALLSIADEDEEDFIRKHLSKVVKEVWIGLNQLDEKAGWQWSDGTPLSYLNWSQEITPGPFVEHHCGTLEVVSAAWRSRDCESTLPYICKGGGSGGGSGGGS	0	0	-0.066
Mrc2_5 CRD-mouse IgG2a-Fc fusion protein (Fc fusion) FQEAEYKFFEHHSSWAQAQRICTWFQADLTSVHSQAELDFLGQNLQKLSSDQEQHWWIGLHTLESDGRFRWTDGSIINFISWAPGKPRPIGKDKKCVYMTARQEDWGDQRCHTALPYICKGGGSGGGSGGGS	0.002	-0.002	-0.005
Sell CRD-mouse IgG2a-Fc fusion protein (Fc fusion) WTYHYSEKPMNWENARKFCKQNYTDLVAIQNKREIEYLENTLPKSPYYYWIGIRKIGKMWTWVGTNKTLTKEAENWGAGEPNNKKSKEDCVEIYIKRERDSGKWNDDACHKRKAALCGGGSGGGSGGGS	-0.041	-0.016	-0.23
Siglec1 CRD-mouse IgG2a-Fc fusion protein (Fc fusion) TWGVSSPKNVQGLSGSCLLIPCIFSYPADVPVSNGITAIWYYDYSGKRQVVIHSGDPKLVDKRFRGRAELMGNMDHKVCNLLLKDLKPEDSGTYNFRFEISDSNRWLDVKGTTVTVTGGGSGGGSGGGS	0	0	-0.002
Ly75_9 CRD-mouse IgG2a-Fc fusion protein (Fc fusion) YKDGVYSVIQKKVTWYEALNACSQSGGELASVHNPNGKLFLEDIVNRDGFPLWVGLSSHDGSESSFEWSDGRAFDYVPWQSLQSPGDCVVLYPKGIWRREKCLSVKDGAICYKGGGSGGGSGGGS	0.004	0.001	-0.014
Cd69 CRD-mouse IgG2a-Fc fusion protein (Fc fusion) YKRTCYFFSTTTKSWALAQRSCSEDAATLAVIDSEKDMTFLKRYSGELEHWIGLKNEANQTWKWANGKEFNSWFNLTGSGRCVSVNHKNVTAVDCEANFHWVCSGGGSGGGSGGGS	0.001	0.001	-0.022
Mrc2_6 CRD-mouse IgG2a-Fc fusion protein (Fc fusion) FLNKCFRIQGQDPQDRVKWSEAQFSCEQQEAQLVTIANPLEQAFITASLPNVTFDLWIGLHASQRDFQWIEQEPLLYTNWAPGEPSGPSPAPSGTKPTSCAVILHSPSAHFTGRWDDRSCTEETHGFICGGGSGGGSGGGS	0.006	0.011	-0.019
Ly75_7 CRD-mouse IgG2a-Fc fusion protein (Fc fusion) YLNNLYKIISKPLTWHGALKECMKEKMRLVSITDPYQQAFLAVQATLRNSSFWIGLSSQDDELNFGWSDGKRLQFSNWAGSNEQLDDCVILDTDGFWKTADCDDNQPGAICYYGGGSGGGSGGGS	0.003	0.001	-0.009
Reg3g CRD-mouse IgG2a-Fc fusion protein (Fc fusion) YGSYCYALFSVSKNWYDADMACQKRPSGHLVSVLSGAEASFLSSMIKSSGNSGQYVWIGLHDPTLGYEPNRGGWEWSNADVMNYINWETNPSSSSGNHCGTLSRASGFLKWRENYCNLELPYVCKGGGSGGGSGGGS	0.017	-0.009	-0.014
Pkd1 CRD-mouse IgG2a-Fc fusion protein (Fc fusion) GNGHCYRLVAEKAPWLQAQEQCRTWAGAALAMVDSPAIQHFLVSKVTRSLDVWIGFSSVEGTEGLDPRGEAFSLESCQNWLPGEPHPATAEHCVRLGPAGQCNTDLCSAPHSYVCEGGGSGGGSGGGS	0	0	-0.01
Reg3b CRD-mouse IgG2a-Fc fusion protein (Fc fusion) YGSYCYALFQIPQTWFDAELACQKRPGGHLVSVLNSAEASFLSSMVKRTGNSYQYTWIGLHDPTLGAEPNGGGWEWSNNDVMNYFNWERNPSTALDRAFCGSLSRASGFLKWRDMTCEVKLPYVCKGGGSGGGSGGGS	0.004	0.005	-0.009
Cd302 CRD-mouse IgG2a-Fc fusion protein (Fc fusion) FQGSCYAFLQVTINVENIEDVRKQCTDHGADMVSIHNEEENAFILDTLQKRWKGPDDLLLGMFYDTDDATFKWYDHSNMTFDKWADQDGEDLVDTCGFLYTKTGEWRKGDCEISSVEGTLGGGSGGGSGGGS	0.001	-0.002	-0.002
Mrc2_8 CRD-mouse IgG2a-Fc fusion protein (Fc fusion) FREHCYSFHMEVLLGHKEALQRCQKAGGTVLSILDEMENVFVWEHLQTAEAQSRGAWLGMNFNPKGGTLVWQDNTAVNYSNWGPPGLGPSMLSHNSCYWIQSSSGLWRPGACTNITMGVVCGGGSGGGSGGGS	0.003	0	-0.001
Mrc1_5 CRD-mouse IgG2a-Fc fusion protein (Fc fusion) YKDYQYYFSKEKETMDNARAFCKKNFGDLATIKSESEKKFLWKYINKNGGQSPYFIGMLISMDKKFIWMDGSKVDFVAWATGEPNFANDDENCVTMYTNSGFWNDINCGYPNNFICQGGGSGGGSGGGS	0	-0.001	-0.004

— patent publication EP4039268A1 (IMBA-Institut für Molekulare Biotechnologie GmbH, dated 2022)
